Laboratory results taken from PMC7077807.

Target: Synaptotagmin II, P29101
Assay: BLI

Chain of Synaptotagmin II, P29101 (P29101 40-60): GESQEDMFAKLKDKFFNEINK

B1: BoNT/B HC HC, P10844 (protein)
chain: SEILNNIILNLRYKDNNLIDLSGYGAKVEVYDGVELNDKNQFKLTSSANSKIRVTQNQNIIFNSVFLDFSVSFWIRIPKYKNDGIQNYIHNEYTIINCMKNNSGWKISIRGNRIIWTLIDINGKTKSVFFEYNIREDISEYINRWFFVTITNNLNNAKIYINGKLESNTDIKDIREVIANGEIIFKLDGDIDRTQFIWMKYFSIFNTELSQSNIEERYKIQSYSEYLKDFWGNPLMYNKEYYMFNAGNKNSYIKLKKDSPVGEILTRSKYNQNSKYINYRDLYIGEKFIIRRKSNSQSINDDIVRKEDYIYLDFFNLNQEWRVYTYKYFKKEEEKLFLAPISDSDEFYNTIQIKEYDEQPTYSCQLLFKKDEESTDEIGLIGIHRFYESGIVFEEYKDYFCISKWYLKEVKRKPYNLKLGCNWQFIPKDEGWTE
Kd: 51 µM
